Data on eleven variants can be found in FireProtDB.

The chains are these.
B1: L7I|R17V|V49I|Q165D|D174E|V217M|Q222G|E237D|P283A, Q88HV5 (parent)
chain: MPFQQGLLATPVPAHARHLFFTLQSPEALPAALDALLPQVDGKQLLLGVGAPLAKALGREIPGLRPFPLLDAAVENPSTQHALWLWLRGDERGDLLLRTQALEQALAPALSLADSVDGFLHRGGHDLTGYEDGTENPTDEEAVQAAIAADGSSFAAFQLWKHDLQYFKSLPQADQDNIIGRRLSDNEELDDAPASAHVKRTAQESFEPEAFMVRRSVSWADQRGAGLAFVALGKSFEAFEVQLRRMSGLEDGIIDGLYRFSRPLTGGYYWCPPMSETGVDLSPLLRA

The data set covers variants of B1. The conditions noted are these: Pseudomonas putida (strain ATCC 47054 / DSM 6125 / CFBP 8728 / NCIMB 11950 / KT2440); pH 7.6; Fluorescence spectroscopy; whole UniProt chain shown.
As for MPFQQGILATPVPAHAVHLFFTLQSPEALPAALDALLPQVDGKQLLLGIGAPLAKALGREIPGLRPFPLLDAAVENPSTQHALWLWLRGDERGDLLLRTQALEQALAPALSLADSVDGFLHRGGHDLTGYEDGTENPTDEEAVQAAIAADGSSFAAFQLWKHDLDYFKSLPQAEQDNIIGRRLSDNEELDDAPASAHVKRTAQESFEPEAFMVRRSMSWADGRGAGLAFVALGKSFDAFEVQLRRMSGLEDGIIDGLYRFSRPLTGGYYWCPPMSETGVDLSALLRA [L7I R17V V49I Q165D D174E V217M Q222G E237D P283A], the Tm was found to be 68 °C. To MPFQQGLLLTPVPAHARHLFFTLQFPEALPAALDALLPQVDGKQLLLGVGAPLVKALGREIPGLRPFPLLDAAVENPSTQHALWLWLRGDERGDLLLRTQALEQALAPALSLADSVDGFLHRGGHDLTGYEDGTENPTDEEAVQAAIALDGSSFAAFQLWKHDLQYFKSLPQADQDNIIGRRLSDNEELDDAPASAHVKRTAQESFEPEAFMVRRSMPWADGRGAGLAFVAFGKSFDAFEVQLRRMSGLEDGIIDGLYRFSRPLTGGYYWCPPMSETGVDLSPLLRA [A9L S25F A54V A149L V217M S218P Q222G L232F E237D] belongs 66 °C; to MPFQQGILATPVPAHAVHLFFTLQSPEDLPAALDALLPQVDGKQLLLGVGAPLAKALGREIPGLRPFPLLDAAVENPSTQHALWLWLRGDDRGDLFHRAQALIQALAPAFVLADEVDGFRYRDGHDLTGYEDGTENPQDEEAVQAAIADDGSSFAAFQLWKHDLDYFKSLPQADQDNIIGRRLSDNEELDDAPASAHVKRTAQESFEPEAFMVRRSVSWADQRGAGLAFVALGKSFEAFEVQLRRMSGLEDGIIDGLYRFSRPLTGGYYWCPPMSETGVDLSPLLRA [L7I R17V A28D E91D L96F L97H T99A E103I L110F S111V S115E L120R H121Y G123D T138Q A149D Q165D], 71 °C. Turning to MPFQQGILATPVPAHARHLFFTLQSPEALPAALDALLPQVDGKQLLLGVGAPLAKALGREIPGLRPFPLLDAAVENPSTQHALWLWLRGDDRGDLLLRTQALEQALAPAFVLADSVDGFLHRGGHDLTGYEDGTENPTDEEAVQAAIAADGSSFAAFQLWKHDLDYFKSLPQAEQDNIIGRRLSDNEELDDAPESAHVKRTAQESFEPEAFMVRRSMSWADGRGAGLAFVALGHSFDAFEVQLRRMSGLEDGIIDGLYRFSRPLTGGYYWCPPMSETGVDLSPLLRA [L7I E91D L110F S111V Q165D D174E A194E V217M Q222G K234H E237D], the Tm is 71 °C. For the variant MPFQQGLLLTPVPAHARHLFFTLQSPEALPAALDALLPQVDGKQLLLGVGAPLAKALGREIPGLRPFPLLDAAVENPSTQHALWLWLRGDERGDLLLRTRALEQALAPAFSLADSVDAFRHRGGRDLTGYEDGTENPTGEEAVQAAIAADGSSFAAFQLWKHDLQYFKSLPQADQDNIIGRRLSDNEELDDAPASAHVKRTAQESFEPEAFMVRRSVSWADQRGAGLAFVAFGKSFEAFEVQLRRMSGLEDGIIDGLYRFSRPLTGGYYWCPPMSETGLDLSPLLRA [A9L Q100R L110F G118A L120R H125R D139G L232F V279L], the Tm came out at 74 °C.

Consider MPFQQGLLLTPVPAHARHLFFTLQFPEALPAALDALLPQVDGKQLLLGVGAPLVKALGREIPGLRPFPLLDAAVENPSTQHALWLWLRGDDRGELLLRTRALEQALAPAFSLADSVDAFRHRGGRDLTGYEDGTENPTGEEAVQAAIALDGSSFVAFQLWKHDLQYFKALPQAEQDNIIGRRLSDNEELDDAPASAHVKRTAQESFEPEAFMVRRSMPWADGRGAGLAFVAFGKSFDAFEVQLRRMSGLEDGIIDGLYRFSRPLTGGYYWCPPMSETGLDLSPLLRA [A9L S25F A54V E91D D94E Q100R L110F G118A L120R H125R D139G A149L A155V S169A D174E V217M S218P Q222G L232F E237D V279L], for which the Tm is 74 °C. MPFQQGILATPVPAHAVHLFFTLQSPEDLPAALDRLLPQVDGKQLLLGIGAPLAKALGREIPGLRPFPLLDAAVENPSTQHALWLWLRGDDRGDLFHRAQALIQALAPALSLADSVDGFLHRGGHDLTGYEDGTENPTDEEAVQAAIAADGSSFAAFQLWKHDLDYFKSLPQADQDNIIGRRLSDNEELDDAPASAHVKRTAQESFEPEAFMVRRSMSWADGRGAGLAFVALGHSFDAFEVQLRRMSGLEDGIIDGLYRFSRPLTGGYYWCPPMSETGVDLSPLLRA [L7I R17V A28D A35R V49I E91D L96F L97H T99A E103I Q165D V217M Q222G K234H E237D]: the Tm is 67 °C.

As to MPFQQGILATPVPAHARHLFFTLQSPEALPAALDALLPQVDGKQLLLGVGAPLAKALGREIPGLRPFPLLDAAVENPSTQHALWLWLRGDERGDLLLRTQALEQALAPALSLADSVDGFLHRGGHDLTGYEDGTENPTDEEAVQAAIAADGSSFAAFQLWKHDLQYFKSLPQADQDNIIGRRLSDNEELDDAPESAHVKRTAQESFEPEAFMVRRSVSWADGRGAGLAFVALGHSFDAFEVQLRRMSGLEDGIIDGLYRFSRPLTGGYYWCPPMSETGVDLSPLLRA [L7I A194E Q222G K234H E237D], the Tm turned out to be 65 °C. As for MPFQQGILATPVPAHAVHLFFTLQSPEDLPAALDRLLPQVDGKQLLLGVGAPLAKALGREIPGLRPFPLLDAAVENPSTQHALWLWLRGDERGDLLLRTQALEQALAPAFVLADEVDGFRYRDGHDLTGYEDGTENPQGDEAVEAAIADDGSSFAAFQLWKHDLDYFKSLPQAEQDNIIGRRLSDNEELDDAPASAHVKRTAQESFEPEAFMVRRSVSWADQRGAGLAFVALGHSFDAFEVQLRRMSGLEDGIIDGLYRFSRPLTGGYYWCPPMSETGVDLSPLLRA [L7I R17V A28D A35R L110F S111V S115E L120R H121Y G123D T138Q D139G E140D Q144E A149D Q165D D174E K234H E237D], the figure is 65 °C. Regarding MPFQQGLLLTPVPAHARHLFFTLQFPEALPAALDALLPQVDGKQLLLGVGAPLVKALGREIPGLRPFPLLDAAVENPSTQHALWLWLRGDDRGELLLRTRALEQALAPAFSLADSVDAFRHRGGRDLTGYEDGTENPTGEEAVQAAIALDGSSFAAFQLWKHDLQYFKSLPQADQDNIIGRRLSDNEELDDAPASAHVKRTAQESFEPEAFMVRRSMPWADGRGAGLAFVAFGKSFDAFEVQLRRMSGLEDGIIDGLYRFSRPLTGGYYWCPPMSETGVDLSPLLRA [A9L S25F A54V E91D D94E Q100R L110F G118A L120R H125R D139G A149L V217M S218P Q222G L232F E237D], the Tm turned out to be 83 °C. As for MPFQQGILATPVPAHAVHLFFTLQSPEDLPAALDRLLPQVDGKQLLLGVGAPLAKALGREIPGLRPFPLLDAAVENPSTQHALWLWLRGDDRGDLLLRTQALIQALAPAFVLADEVDGFRYRDGHDLTGYEDGTENPQGDEAVEAAIAADGSSFAAFQLWKHDLDYFKSLPQADQDNIIGRRLSDNEELDDAPASAHVKRTAQESFEPEAFMVRRSVSWADQRGAGLAFVALGHSFDAFEVQLRRMSGLEDGIIDGLYRFSRPLTGGYYWCPPMSETGVDLSPLLRA [L7I R17V A28D A35R E91D E103I L110F S111V S115E L120R H121Y G123D T138Q D139G E140D Q144E Q165D K234H E237D], the figure is 73 °C.
